In paper PMC4349574 (Developmental cell, 2013):

Molecular target: T1, Ypp1 (residues 11–817), purified, GST tag removed (S. cerevisiae, UniProt P46951 11-817)
T1 sequence (looked up): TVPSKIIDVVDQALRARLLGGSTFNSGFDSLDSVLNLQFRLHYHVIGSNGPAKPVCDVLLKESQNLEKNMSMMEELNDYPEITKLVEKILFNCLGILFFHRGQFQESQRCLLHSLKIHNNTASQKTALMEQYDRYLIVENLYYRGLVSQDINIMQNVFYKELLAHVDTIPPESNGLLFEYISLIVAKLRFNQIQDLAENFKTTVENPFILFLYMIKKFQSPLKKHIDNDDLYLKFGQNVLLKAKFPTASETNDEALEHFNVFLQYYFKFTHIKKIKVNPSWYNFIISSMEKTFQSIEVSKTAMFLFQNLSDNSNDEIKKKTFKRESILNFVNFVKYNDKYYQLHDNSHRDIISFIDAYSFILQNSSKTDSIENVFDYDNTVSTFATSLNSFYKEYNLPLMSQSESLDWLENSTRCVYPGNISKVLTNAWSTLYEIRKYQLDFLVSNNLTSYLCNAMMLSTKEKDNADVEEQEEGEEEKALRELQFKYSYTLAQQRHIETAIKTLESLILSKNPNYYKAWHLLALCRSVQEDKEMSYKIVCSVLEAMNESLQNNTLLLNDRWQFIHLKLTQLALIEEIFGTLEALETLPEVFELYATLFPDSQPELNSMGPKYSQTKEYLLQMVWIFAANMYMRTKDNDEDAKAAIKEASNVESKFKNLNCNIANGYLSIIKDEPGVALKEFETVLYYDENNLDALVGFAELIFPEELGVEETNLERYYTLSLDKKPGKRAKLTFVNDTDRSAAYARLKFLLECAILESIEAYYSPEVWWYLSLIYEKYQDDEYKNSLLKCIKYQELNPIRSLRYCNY
Assay: pull-down

B1: GST-Efr3-C_(651–730) (domain or fragment, S. cerevisiae, UniProt Q03653 651-730, looked up)
chain: APKVSDLKKTMNEKNIPNNMKRDGSFRGSQSVKSRVTNITFLLNELKTFSDDANKIKDPDEENIVGLDKIDVARSNSLRL
- binding result: binds
